Key:
6F6 (7N-4/3 six-finger) [1] = target: T1, 6F6 (7N-4/3 six-finger) (synthetic construct); test: EMSA; almost no affinity; 3 mismatches; conditions: tags: Promega TNT; label: radiolabel
7N [2] = target: T2, 7N (synthetic construct); test: EMSA; intact t2 site; conditions: tags: Promega TNT; label: radiolabel
HIV-D = HIV-D (synthetic construct); test: ELONA; apparent Kd, phage ELISA, Zn2+; conditions: protein: virion; label: biotin
HIV-G = HIV-G (synthetic construct); test: ELONA; apparent Kd, phage ELISA, Zn2+; conditions: protein: virion; label: biotin
7N [3] = target: T2, 7N; test: EMSA; roughly similar apparent Kd to 4/3; conditions: tags: Promega TNT; label: radiolabel
6F6 (7N-4/3 six-finger) [4] = target: T1, 6F6 (7N-4/3 six-finger); test: EMSA; affinity relative to 4/3 or 7N alone; conditions: tags: Promega TNT; label: radiolabel
HIV-F = HIV-F (synthetic construct); test: ELONA; apparent Kd, phage ELISA, Zn2+; conditions: protein: virion; label: biotin
HIV-C = HIV-C (synthetic construct); test: ELONA; apparent Kd, phage ELISA, Zn2+; conditions: protein: virion; label: biotin
HIV-E = HIV-E (synthetic construct); test: ELONA; apparent Kd, phage ELISA; F3 subsite printed differently in original table; conditions: protein: virion; label: biotin
6F6 (7N-4/3 six-finger) [5] = target: T1, 6F6 (7N-4/3 six-finger); test: EMSA; almost no affinity; 11 mismatches; conditions: tags: Promega TNT; label: radiolabel
6F6 (7N-4/3 six-finger) [6] = target: T1, 6F6 (7N-4/3 six-finger); test: EMSA; almost no affinity; 8 mismatches; conditions: tags: Promega TNT; label: radiolabel
7N [7] = target: T2, 7N; test: EMSA; conditions: tags: Promega TNT; label: radiolabel
7N [8] = target: T2, 7N; test: ELONA; apparent Kd comparable with Zif268, weakest of the three; phage ELISA; conditions: protein: virion

T1 sequence (chain, as listed by the source): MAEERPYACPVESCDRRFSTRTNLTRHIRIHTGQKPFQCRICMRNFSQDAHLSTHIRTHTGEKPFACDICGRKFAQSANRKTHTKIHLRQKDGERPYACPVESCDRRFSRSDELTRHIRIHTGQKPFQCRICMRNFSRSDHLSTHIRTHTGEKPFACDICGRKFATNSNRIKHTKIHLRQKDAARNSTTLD

B1: 68K probe (dsDNA)
DNA 1: CTTCCCGGTTCGGCGGTAATGAGATACGAG
DNA 2: CTCGTATCTCATTACCGCCGAACCGGGAAG
binding result (6F6 (7N-4/3 six-finger) [1]): no binding | binding result (7N [2]): binds

B2: HIV-D site (dsDNA)
DNA 1: GCAGCTGCTT
DNA 2: AAGCAGCTGC
Kd (HIV-D): 4 nM

B3: HIV-G site (dsDNA)
DNA 1: GCTAACTAGG
DNA 2: CCTAGTTAGC
Kd (HIV-G): 40.3 nM

B4: T24 probe (dsDNA)
DNA 1: CCGCCGGATCGGGCGGTAATGAGATGCCATG
DNA 2: CATGGCATCTCATTACCGCCCGATCCGGCGG
binding result (7N [3]): binds | binding signal (6F6 (7N-4/3 six-finger) [4]): ≥ 25 fold

B5: HIV-F site (dsDNA)
DNA 1: GGAGCTCTCT
DNA 2: AGAGAGCTCC
Kd (HIV-F): 13.3 nM

B6: HIV-C site (dsDNA)
DNA 1: GATGCTGCAT
DNA 2: ATGCAGCATC
Kd (HIV-C): 13.7 nM

B7: HIV-E site (dsDNA)
DNA 1: ATCTGAGCCT
DNA 2: AGGCTCAGAT
Kd (HIV-E): 36.6 nM

B8: H2B probe (dsDNA)
DNA 1: ATAGAATCGCTTATGCAAATAAGGTGAAGA
DNA 2: TCTTCACCTTATTTGCATAAGCGATTCTAT
binding result (6F6 (7N-4/3 six-finger) [5]): no binding

B9: IE110 probe (dsDNA)
DNA 1: TGGGTTCCGGGTATGGTAATGAGTTTCTTC
DNA 2: GAAGAAACTCATTACCATACCCGGAACCCA
binding result (6F6 (7N-4/3 six-finger) [6]): no binding | binding result (7N [7]): binds

B10: t2 (dsDNA)
DNA 1: TAATGAGAT
DNA 2: ATCTCATTA
Kd (7N [8]): ~1 nM

From patent publication US20040039175, “Modulation of viral gene expression by engineered zinc finger proteins” (published 2004)
